From patent US20220380459A1 (DRAGONFLY THERAPEUTICS, published 2022)
Where two headings read alike, the source gives them in different places.

Columns and labels:
[1] = target: T1, human NKG2D expressed on cells (human, UniProt P26718 1-216); assay: flow cytometry on EL4-hNKG2D cells
T1 construct: whole, on cells; also called hNKG2D; EL4-hNKG2D
T1 sequence (looked up): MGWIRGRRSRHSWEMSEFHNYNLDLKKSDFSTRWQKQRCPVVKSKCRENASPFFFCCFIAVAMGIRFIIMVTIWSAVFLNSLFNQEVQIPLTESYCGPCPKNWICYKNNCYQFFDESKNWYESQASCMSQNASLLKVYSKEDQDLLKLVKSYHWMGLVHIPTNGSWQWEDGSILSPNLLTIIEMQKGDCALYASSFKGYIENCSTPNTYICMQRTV
Method: EL4-hNKG2D cells were incubated with the diluted TriNKET or mAb solutions. Binding of the TriNKET or mAb to the EL4 cells was detected using a fluorophore-conjugated anti-human IgG secondary antibody. The cells were analyzed by flow cytometry, and fold over background values were calculated by normalizing binding MFI to the MFI of a control group in which the cells were incubated with the secondary antibody only.

[2] = target: T2, human CD33 expressed on cells (human, UniProt P20138 18-364); assay: flow cytometry on Mv4-11 cells, fluorophore-conjugated anti-human IgG secondary antibody, MFI as fold over background (FOB)
T2 construct: endogenous CD33 of human AML cell lines and blood monocytes; also called cell-expressed CD33 (Molm-13, Mv4-11, monocytes)
Method: (§1) The cells were analyzed by flow cytometry, and fold over background values were calculated by normalizing binding MFI to the MFI of a control group in which the cells were incubated with the secondary antibody only.

[3] = target: T2, human CD33 expressed on cells; assay: flow cytometry on Molm-13 cells, fluorophore-conjugated anti-human IgG secondary antibody, MFI as fold over background (FOB)
Method: as §1

C domain of human CD33 [4] = target: T3, C domain of human CD33 (human, UniProt P20138 140-259, limits assumed); assay: SPR, Fab captured, 37C
T3 construct: recombinant C domain
Method: (§2) Kinetics and affinity of a series of Fab fragments of anti-CD33 antibodies with different CD33 variants (human CD33 ECD, cyno CD33 ECD, V-domain of human CD33, C-domain or human CD33 and selected CD33 SNPs) were assessed by surface plasmon resonance using Biacore 8K instrument (GE Healthcare). Anti-Fab antibody was immobilized on a CMS chip using standard amine coupling chemistry. CD33 FABs were captured on the anti-Fab chip at a density of ˜100 RU. Solutions containing different concentrations of soluble monomeric CD33 or its domains were injected over the captured FABs and control surfaces at 30 μl/min at 37° C. Surfaces were regenerated between cycles by quick injection of 10 mM glycine, pH 1.8. To obtain kinetic rate constants double-referenced data were fit to a 1:1 interaction model using Biacore 8K Evaluation software (GE Healthcare). The equilibrium binding constant KD was determined by the ratio of binding rate constants kd/kₐ.

[5] = target: T4, human CD33 extracellular domain (human, UniProt P20138 18-259); assay: SPR, Fab captured, 37C
T4 construct: soluble monomeric ECD; also called human CD33 ECD; hCD33
Method: as §2

V domain of human CD33 [6] = target: T5, V domain of human CD33 (human, UniProt P20138 18-139, limits assumed); assay: SPR, Fab captured, 37C
T5 construct: recombinant, fully glycosylated V domain; also called Human CD33 V domain
Method: as §2

[7] = target: T4, human CD33 extracellular domain; assay: SPR, Fab captured, 37C; remark: listed apart in the source
Method: as §2

[8] = target: T4, human CD33 extracellular domain; assay: SPR, Fab captured, 37C; remark: listed apart in the source
Method: as §2
(§3) Affinity of 29 Fab fragments binding to human and cyno CD33 ECD were assayed by Biacore analysis.

[9] = target: T6, cyno CD33 extracellular domain (Cynomolgus/Rhesus (cyno)); assay: SPR, Fab captured, 37C;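 further: surface plasmon resonance with Fabs captured on anti-Fab surface, soluble monomeric CD33 as analyte at several concentrations, double-referenced 1:1 model fit, KD as koff/kon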
T6 construct: soluble monomeric ECD; also called cyno CD33 ECD
Method: as §2, §3

[10] = target: T4, human CD33 extracellular domain; assay: SPR, Fab captured, 37C; remark: listed apart in the source
Method: as §2, §3

C domain of human CD33 [11] = target: T3, C domain of human CD33; assay: SPR, Fab captured, 37C; remark: listed apart in the source
Method: as §2

V domain of human CD33 [12] = target: T5, V domain of human CD33; assay: SPR, Fab captured, 37C; remark: listed apart in the source
Method: as §2

[13] = target: T4, human CD33 extracellular domain; assay: SPR, Fab captured, 37C; remark: listed apart in the source
Method: as §2

[14] = target: T7, deglycosylated V domain of human CD33 (human, UniProt P20138 18-139, limits assumed, N-glycans removed by PNGase); assay: SPR, Fab captured, 37C
T7 construct: V domain deglycosylated by PNGase before testing; also called deglycosylated V CD33

V domain of human CD33 [15] = target: T5, V domain of human CD33; assay: SPR, Fab captured, 37C; remark: listed apart in the source

B1: I07-F405L mAb (antibody, human IgG1, kappa, V domains shown)
VH: EVQLVESGGGLVQPGGSLRLSCAASGFTFGSYWMSWVRQAPGKGLEWVATIKQDGSEKSYVDSVKGRFTISRDNAKNSLYLQMNSLRAEDTAVYYCARPLNAGELDVWGQGTMVTVSS
VL: DIQMTQSPSTLSASVGDRVTITCRASQSISSWLAWYQQKPGKAPKLLIYEASSLESGVPSRFSGSGSGTEFTLTISSLQPDDFATYYCQQSQSYPPITFGGGTKVEIKR
notes: Fc variant of I07 with F405L (EU); a Lys may optionally stand at the C-terminus of the heavy chain
binding result [1]: no binding
EC50 (read off the curve) [2]: ~0.3 µg/mL
EC50 (read off the curve) [3]: ~2 µg/mL

B2: ADI-11815 Fab (Fab, V domains shown)
VH: QVQLVQSGAEVKKPGASVKVSCKASGYTFGTYYMHWVRQAPGQGLEWMGIINPSRGSTVYAQKFQGRVTMTRDTSTSTVYMELSSLRSEDTAVYYCARGAGYDDEDMDVWGKGTTVTVSS
VL: DIQMTQSPSSVSASVGDRVTITCRASQGIDSWLAWYQQKPGKAPKLLIYAASSLQSGVPSRFSGSGSGTDFTLTISSLQPEDFATYYCQQAHSYPLTFGGGTKVEIK
notes: Fab fragment; also called Ab7
binding result (C domain of human CD33 [4]): no binding
Kd [5]: 0.23 nM
koff [5]: 7.91e-05 s⁻¹
kon [5]: 339000 M⁻¹ s⁻¹
binding result (V domain of human CD33 [6]): no binding
Kd [7]: 0.23 nM
koff [7]: 7.91e-05 s⁻¹
kon [7]: 339000 M⁻¹ s⁻¹
Kd [8]: 0.23 nM
koff [8]: 7.91e-05 s⁻¹
kon [8]: 339000 M⁻¹ s⁻¹
binding result [9]: no binding (tested: 100 nM)
Kd [10]: 0.23 nM
koff [10]: 7.91e-05 s⁻¹
kon [10]: 339000 M⁻¹ s⁻¹

B3: ADI-11801 Fab (Fab, V domains shown)
VH: QVQLVQSGAEVKKPGASVKVSCKASGYTFSDYYMHWVRQAPGQGLEWMGMINPSWGSTSYAQKFQGRVTMTRDTSTSTVYMELSSLRSEDTAVYYCAREAADGFVGERYFDLWGRGTLVTVSS
VL: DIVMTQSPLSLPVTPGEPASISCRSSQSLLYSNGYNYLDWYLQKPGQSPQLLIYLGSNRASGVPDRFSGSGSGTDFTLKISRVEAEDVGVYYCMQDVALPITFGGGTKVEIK
notes: Fab fragment; also called Ab4
binding result (C domain of human CD33 [11]): no binding
Kd (V domain of human CD33 [12]): 0.69 nM
koff (V domain of human CD33 [12]): 0.00125 s⁻¹
kon (V domain of human CD33 [12]): 1.8e+06 M⁻¹ s⁻¹
Kd [13]: 0.55 nM
koff [13]: 0.000417 s⁻¹
kon [13]: 756000 M⁻¹ s⁻¹
Kd (V domain of human CD33 [6]): 0.69 nM
koff (V domain of human CD33 [6]): 0.00125 s⁻¹
kon (V domain of human CD33 [6]): 1.8e+06 M⁻¹ s⁻¹
Kd [7]: 0.55 nM
koff [7]: 0.000417 s⁻¹
kon [7]: 756000 M⁻¹ s⁻¹
Kd [14]: 0.55 nM
koff [14]: 0.00115 s⁻¹
kon [14]: 2.1e+06 M⁻¹ s⁻¹
Kd (V domain of human CD33 [15]): 0.69 nM
koff (V domain of human CD33 [15]): 0.00125 s⁻¹
kon (V domain of human CD33 [15]): 1.8e+06 M⁻¹ s⁻¹
Kd [8]: 0.55 nM
koff [8]: 0.000417 s⁻¹
kon [8]: 756000 M⁻¹ s⁻¹
binding result [9]: no binding (tested: 100 nM)
Kd [10]: 0.55 nM
koff [10]: 0.000417 s⁻¹
kon [10]: 756000 M⁻¹ s⁻¹
